According to the supplement of paper PMC9732359:
± gives the uncertainty stated by the source.

Experiment: protein stability index of a GFP-peptide fusion (yeast GPS) (PSI 1-4); higher = more stable; sorted into four equal gates, so the index is relative within each strain
Details: pdr5∆
How it was run: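 The protein stability index of a peptide was calculated by multiplying its read frequency in each gate by that gate's number and adding the products. The peptides were tiled 17-residue stretches of yeast proteins, fused downstream of GFP on a Cherry-expressing plasmid and carried in yeast as a pooled library. Mid-log cultures in leucine-free medium were sorted into four equal gates by GFP/Cherry ratio, and each gate's plasmids were PCR-amplified and Illumina-sequenced.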

Row | Sequence | protein stability index
1 | EALVQAFAFCIPVYCFS [YCG1] | 1.83 ± 0.056
2 | EANWPLPVNIRRIIQNA [RPO21] | 1.37 ± 0.089
3 | EARLFNIWGTVRTNRFD [ECM29] | 2.14 ± 0.15
4 | EAVKQAAKIIYLAHEDN [PRE10] | 3.02 ± 0.12
5 | EAVVDQDVQRTCILHGP [FAS1] | 3.24 ± 0.087
6 | ECFISMQSTSPAVKQWD [SWI1] | 2.38 ± 0.058
7 | ECQVIAAEGLCKLFLAD [YCG1] | 3.29 ± 0.067
8 | EDEEKILDNTENYDDTE [DSN1] | 3.33 ± 0.078
9 | EDEMMHEEDQKTNIIEK [RPN12] | 3.09 ± 0.12
10 | EDETLRRIKEAEENLKK [YIL149C/MLP2] | 3.54 ± 0.15
11 | EDFEHNNLSSMNLDFDI [MCD1] | 3.24 ± 0.061
12 | EDGTSASFQIVEEDHTL [RPC19] | 3.69 ± 0.17
13 | EDHDVHSNESSNETIGE [IRR1] | 3.2 ± 0.086
14 | EDIIKRTSPIDNVSNTH [NUT2] | 2.88 ± 0.06
15 | EDITEPKPDKPSGRTRG [ESC2] | 2.96 ± 0.14
16 | EDMETQASDPSKKKKNI [RPC53] | 3.44 ± 0.19
17 | EDPNSAAFDEVEYKLTF [DIS3] | 1.6 ± 0.29
18 | EDPVTVEYLTRYVAGVQ [PRE6] | 2.39 ± 0.07
19 | EDRNKIHQYLFQEGVVV [RPS10A] | 2.37 ± 0.06
20 | EDRNQRIKEMYWKLWID [FAS1] | 3.46 ± 0.1
21 | EEAGSPLVYRHELITNI [RPB9] | 3.39 ± 0.058
22 | EEATTEEAGEEEAKEEV [RPS0A] | 2.78 ± 0.17
23 | EEDFYTVVGNASFGKNL [DSN1] | 1.38 ± 0.25
24 | EEEIKKFDSRIRGILMA [PRP8] | 2.81 ± 0.074
25 | EEEMAPYYKYLCEEYLV [RPN7] | 2.74 ± 0.11

Row | Sequence | protein stability index
26 | EEGRAIPGEYITYALSG [RPS21B] | 3.1 ± 0.11
27 | EEKEEENGDEDEDEDED [QCR6] | 3.34 ± 0.27
28 | EELKDSEINEILARNDE [SNF2] | 3.55 ± 0.12
29 | EENNYQYGYSGSSAGMN [SNF6] | 2.16 ± 0.077
30 | EENWDDVEVDDDFTNEL [SEM1] | 3.13 ± 0.22
31 | EEPAKEEAPAPTPAASA [FAS2] | 2.82 ± 0.12
32 | EEQLDALECRLASAIAS [CSN12] | 2.02 ± 0.15
33 | EEQLDLLSAILDPSKSK [MED11] | 3.18 ± 0.12
34 | EETSHLLTVTPGPRLLY [RPN10] | 2.69 ± 0.074
35 | EETYEEKPQFKDGETTD [RPO26] | 2.98 ± 0.28
36 | EEYRKQLDKKNELQKFQ [SMC1] | 3.43 ± 0.12
37 | EEYVINLLKVSVDICNN [ECM29] | 2.58 ± 0.063
38 | EFCDEPSVGVKTMKTFV [RPB5] | 3.56 ± 0.27
39 | EFFNPEIFHLLQPLEEG [SIN4] | 1.84 ± 0.064
40 | EFIAAVNNPQEETSHLL [RPN10] | 3 ± 0.091
41 | EGARMVRELFEMARTKK [RPT1] | 1.7 ± 0.15
42 | EGDIQVLKSYGAAPYAA [RPT1] | 2.83 ± 0.12
43 | EGIKVVDIDDPDMMVDS [SNF2] | 3.14 ± 0.19
44 | EGKKVMAPYLPGSRASS [RPN2] | 2.69 ± 0.074
45 | EGLDLLKLCVQELEKRM [PRE1] | 2.32 ± 0.076
46 | EGLIIDTDKLPIKNRTS [SIN4] | 2.85 ± 0.086
47 | EGNAGGDQKTSENRNNI [YOR098C/NUP1] | 3.6 ± 0.17
48 | EGNQGSLQEDVSFDFNG [MED8] | 3.41 ± 0.085
49 | EHASLLVRDSKPSKPFN [MED8] | 2.67 ± 0.046
50 | EHGMNAPSVPEFIYLTK [SNF2] | 3.28 ± 0.077

Row | Sequence | protein stability index
51 | EHHSSVKYASPNLNMKY [FAS2] | 3 ± 0.06
52 | EHKTPELISFKERTKSL [YIL149C/MLP2] | 2.95 ± 0.076
53 | EHNPSAHTASVGVVFGS [COR1] | 3.24 ± 0.13
54 | EIARQMRDKSFGRTLAS [RPL12A] | 3.07 ± 0.12
55 | EIELKKLPKVYKRSIVR [SWI1] | 1.86 ± 0.071
56 | EIENATKDIFPLQNIHV [RPS1A] | 2.36 ± 0.27
57 | EIEQLDQYIQKQVQISH [YGL172W/NUP49] | 3.11 ± 0.05
58 | EIEVDEMEVDAEGEEVE [RPN1] | 3.68 ± 0.12
59 | EINNLIQLPASLAATYS [ARP9] | 1.87 ± 0.045
60 | EIQRTMLELLNQLDGFD [RPT2] | 2.97 ± 0.12
61 | EIYTVEDRPPEYWAQRK [ISW2] | 3.14 ± 0.14
62 | EKADYERELISNIEQTE [YIL149C/MLP2] | 3.48 ± 0.087
63 | EKFSSFIESIVVDFKNK [SNF12] | 2.84 ± 0.078
64 | EKKQKTESQDVETRVQN [DPB4] | 3.38 ± 0.072
65 | EKLINNSDDCMMEEIIN [ECM29] | 3.1 ± 0.11
66 | EKLLRHVDSLIEDFVDG [SRB7] | 3.2 ± 0.083
67 | EKLVSDLRLIKVPQQAA [SMC1] | 3.44 ± 0.16
68 | EKPLILADYIVEVLLVN [NUT1] | 1.49 ± 0.039
69 | EKTINDLQRTQTLSEKE [YIL149C/MLP2] | 3.03 ± 0.06
70 | EKYAAAAPAATSAASGD [RPP0] | 2.15 ± 0.074
71 | ELALIEEAYDNPHDTLN [PRP8] | 3.3 ± 0.077
72 | ELALLNHWRQNKGRAVY [BRR2] | 1.21 ± 0.13
73 | ELDILNKGWKLQSLNES [SRB4] | 3.05 ± 0.21
74 | ELDTASRILKAQSRNVE [YGR119C/NUP57] | 2.34 ± 0.063
75 | ELENFLDNFETKTEALL [YJL041W/NSP1] | 2.91 ± 0.14

Row | Sequence | protein stability index
76 | ELGEQKCQELVTNIRRI [RRP46] | 1.81 ± 0.056
77 | ELHKEGTISKLENKENG [SMC2] | 2.61 ± 0.097
78 | ELKDICSFAVTKSSLND [YML103C/NUP188] | 2.96 ± 0.065
79 | ELLKSSLQKAGSKMEAK [AAR2] | 3.35 ± 0.085
80 | ELMAMNITPRLYTDRSR [RPB2] | 1.68 ± 0.074
81 | ELMDRTGLKLYSRITLI [RPP1] | 2.66 ± 0.1
82 | ELPKFILSDSPLELSAP [DIS3] | 3.37 ± 0.17
83 | ELSDKEIYTVEDRPPEY [ISW2] | 3.45 ± 0.15
84 | ELSEEKYIVKASSGPRY [RPT4] | 2.72 ± 0.17
85 | ELTDEYLAENPDPNFEN [PRP8] | 3.16 ± 0.076
86 | ELTLAEQQVKEAEMAYV [SMC4] | 3.1 ± 0.076
87 | ELWRKEQKLQTVLETLL [SMC3] | 3.42 ± 0.11
88 | EMIDSHIKEASEEVDDL [SNF2] | 2.81 ± 0.19
89 | EMVKDRGYFITQEEVEL [RPB5] | 2.08 ± 0.071
90 | ENALIELKNELAKTKEN [YIL149C/MLP2] | 2.97 ± 0.07
91 | ENESTNYQYKIQELRKL [MED7] | 2.61 ± 0.074
92 | ENGTLLVPPPRTIANQD [RPR2] | 3.05 ± 0.052
93 | ENIEPLDPINLPLDSQD [PRP8] | 2.97 ± 0.089
94 | ENLNRNWRGREHWKVRN [BRN1] | 3.33 ± 0.14
95 | ENPAFLPGTNNNSNSNN [SEC65] | 3.13 ± 0.24
96 | ENPNFWRQFGNRMQISP [GRR1] | 3.02 ± 0.13
97 | ENQPFHGIKDIPIGHVH [AAR2] | 2.98 ± 0.086
98 | ENSYLRGLTPQEFFFHA [RPO21] | 2.64 ± 0.046
99 | ENVGTRLLPINVNKKAL [MED11] | 2.65 ± 0.13
